The results in this text go back to patent US20180071818, “A PROCESS FOR THE PREPARATION OF BIO-ORGANIC COATED GOLD AND SILVER NANOPARTICLES USING BLUE LIGHT” (Council of Scientific & Industrial Research, published 2018).

This data set addresses Gelsolin (full-length) (Homo sapiens, UniProt P06396 P06396:28-782). The data set is described as follows: ELONA; aptamer-Ag nanoparticles coated directly, gelsolin 2 ug/well, anti-gelsolin detection; room temperature. The note with it: tags: Sigma; His tag inferred from capture by anti-His antibody; label: silver nanoparticle. The method, then: In case of aptamer based Ag nanoparticles formation, reaction mixture was prepared by adding 18 μl of Aptamer 10.10R (SEQ ID No. 8) (4.86 μg/μl or 18 pmoles/μl) in each 0.2 ml of reaction volume of buffer (25 mM tris pH 8, 150 mM NaCl, 5 mM MgCl₂, 10 mM KCl, 0.01% tween and 2 mM CaCl₂) with 7.2 μl of AgNO₃ of 5 mM stock solution to form Ag nanoparticles. The final molar ratio of silver ions to aptamer 10.10R was kept constant at […]. Treated the ELISA plate with 1 μg/well streptavidin (1 mg/ml) and incubated the plate overnight at 4° C. For aptamer based Ag nanoparticles coating streptavidin was not used. The wells were blocked with 3% bovine serum albumin (BSA) in PBS and kept at room temperature for 2 hours to saturate excess binding sites. The wells were then washed three times with PBST and further added with 5, 10 and 20 μl of aptamer only and aptamer Ag nanoparticles (18 pmoles/μl), making aptamer working concentration of […]. All the coatings were performed in duplicates for two conditions one with and one without gelsolin in next step. […] The absorbance was measured with a multiskan ELISA reader at 450 nm.
It was observed that the coated aptamer or aptamer_Ag nanoparticles were captured by gelsolin which was further detected using anti-gelsolin antibody using an indirect ELISA based method (FIG. 4C). […]

Gelsolin (full-length), sequence (P06396 28-782, one chain of several): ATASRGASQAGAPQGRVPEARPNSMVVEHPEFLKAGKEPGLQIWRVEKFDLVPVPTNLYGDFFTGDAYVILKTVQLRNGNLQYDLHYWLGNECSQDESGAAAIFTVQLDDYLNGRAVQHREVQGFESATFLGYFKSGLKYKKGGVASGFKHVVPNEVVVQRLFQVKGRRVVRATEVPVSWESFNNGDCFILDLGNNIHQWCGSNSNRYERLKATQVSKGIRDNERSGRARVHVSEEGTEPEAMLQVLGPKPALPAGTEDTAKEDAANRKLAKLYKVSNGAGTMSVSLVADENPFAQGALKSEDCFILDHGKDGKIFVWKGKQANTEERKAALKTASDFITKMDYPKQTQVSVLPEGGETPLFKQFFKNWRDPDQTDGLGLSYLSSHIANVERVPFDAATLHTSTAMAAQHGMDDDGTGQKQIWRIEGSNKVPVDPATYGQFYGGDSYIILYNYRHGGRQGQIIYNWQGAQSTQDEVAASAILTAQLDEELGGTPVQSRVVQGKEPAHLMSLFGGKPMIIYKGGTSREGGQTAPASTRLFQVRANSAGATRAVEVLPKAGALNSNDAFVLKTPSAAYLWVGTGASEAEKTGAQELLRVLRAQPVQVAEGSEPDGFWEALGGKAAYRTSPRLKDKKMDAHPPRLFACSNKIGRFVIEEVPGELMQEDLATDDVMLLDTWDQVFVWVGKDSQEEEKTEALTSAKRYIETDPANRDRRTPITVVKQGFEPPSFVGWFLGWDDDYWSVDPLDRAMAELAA

B1: Aptamer 10.10R coated on Ag nanoparticles (ssDNA)
DNA: TCAAGTGGTCATGTACTAGTCAAGCACTTTCGCTGCTCGCTGGCGCCGCGCCCATCATATGTCCTTCTCTTCCCTA
In turn, B1 registered a binding signal of 3 fold vs aptamer only.
